The values below come from publication PMC3168947 (Molecular cell, 2011).

One data set deals with ^ΔLClpA6. Put plainly: Binding of ClpS*^F to ^ΔLClpA6, with or without peptide. More on the design: species or system E. coli. The note with it: 20 μM LLYVQRDSKEC; Fig. 3E; in words.
The next data set concerns the target ClpA6 (Escherichia coli, UniProt P0A8Q6+P0ABH9, C101S/C73V/E96C). The data set is classed as binding, E. coli.
The data set “crystal structure” concerns the molecule itself. Put plainly: crystal structure.
The target of the next data set is T1, L22 ClpS with ClpA6 (E. coli, UniProt P0ABH9 1-758; P0A8Q6 22-106).
T1 sequence (looked up) 1: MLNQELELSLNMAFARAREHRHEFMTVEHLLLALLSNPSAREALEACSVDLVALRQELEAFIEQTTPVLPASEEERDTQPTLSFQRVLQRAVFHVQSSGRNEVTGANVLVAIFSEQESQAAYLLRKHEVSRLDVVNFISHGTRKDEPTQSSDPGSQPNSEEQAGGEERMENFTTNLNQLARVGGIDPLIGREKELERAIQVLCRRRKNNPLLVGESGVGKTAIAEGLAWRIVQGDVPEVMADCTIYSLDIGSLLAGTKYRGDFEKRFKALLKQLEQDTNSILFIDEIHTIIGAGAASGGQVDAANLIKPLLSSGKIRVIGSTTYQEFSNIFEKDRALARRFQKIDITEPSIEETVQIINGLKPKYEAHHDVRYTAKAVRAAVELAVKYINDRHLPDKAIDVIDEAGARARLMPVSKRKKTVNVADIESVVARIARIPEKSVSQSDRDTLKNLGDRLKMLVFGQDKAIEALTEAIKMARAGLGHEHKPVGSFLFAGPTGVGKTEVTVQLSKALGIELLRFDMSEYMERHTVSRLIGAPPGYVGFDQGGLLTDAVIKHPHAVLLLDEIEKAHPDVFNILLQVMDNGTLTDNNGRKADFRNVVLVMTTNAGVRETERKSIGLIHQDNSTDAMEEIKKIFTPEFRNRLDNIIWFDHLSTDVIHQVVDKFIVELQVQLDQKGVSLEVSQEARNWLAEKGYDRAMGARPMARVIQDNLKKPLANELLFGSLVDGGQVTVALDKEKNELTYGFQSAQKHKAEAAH
T1 sequence (looked up) 2: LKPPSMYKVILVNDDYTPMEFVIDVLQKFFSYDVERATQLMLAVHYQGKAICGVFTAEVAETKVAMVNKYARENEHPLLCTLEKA
As to the kind of experiment: fluorescence polarisation.

For a further data set, the target named is T2, D20 ClpS with ClpA6 (E. coli, UniProt P0ABH9 1-758; P0A8Q6 20-106).
T2 sequence (looked up) 1: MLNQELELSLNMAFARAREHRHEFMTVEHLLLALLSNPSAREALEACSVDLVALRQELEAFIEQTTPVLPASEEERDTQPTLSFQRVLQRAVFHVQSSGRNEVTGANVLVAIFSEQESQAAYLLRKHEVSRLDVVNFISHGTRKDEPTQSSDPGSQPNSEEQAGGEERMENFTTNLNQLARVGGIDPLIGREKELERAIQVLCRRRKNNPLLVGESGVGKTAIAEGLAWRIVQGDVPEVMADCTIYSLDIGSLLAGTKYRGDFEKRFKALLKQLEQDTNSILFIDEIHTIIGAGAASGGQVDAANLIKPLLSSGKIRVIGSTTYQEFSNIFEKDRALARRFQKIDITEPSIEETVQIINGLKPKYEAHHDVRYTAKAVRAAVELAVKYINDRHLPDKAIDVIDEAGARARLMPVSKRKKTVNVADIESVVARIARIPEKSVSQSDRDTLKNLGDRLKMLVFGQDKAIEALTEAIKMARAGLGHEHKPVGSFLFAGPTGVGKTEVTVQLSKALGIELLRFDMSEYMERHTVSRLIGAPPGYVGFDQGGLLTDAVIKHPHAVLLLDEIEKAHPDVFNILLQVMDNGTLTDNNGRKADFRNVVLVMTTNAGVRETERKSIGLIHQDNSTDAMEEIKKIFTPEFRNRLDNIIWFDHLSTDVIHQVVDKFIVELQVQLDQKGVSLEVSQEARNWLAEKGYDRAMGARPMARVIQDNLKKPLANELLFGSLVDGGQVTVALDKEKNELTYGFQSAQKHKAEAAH
T2 sequence (looked up) 2: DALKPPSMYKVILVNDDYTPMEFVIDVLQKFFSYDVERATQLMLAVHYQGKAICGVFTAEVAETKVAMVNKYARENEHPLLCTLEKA
Put plainly: fluorescence polarisation. (In general: In fluorescence polarisation assays a small probe gives low polarisation when free and higher when bound to something large.)

Another data set has as its target T3, ClpS-ClpA6 complex (E. coli, UniProt P0ABH9 1-758; P0A8Q6 1-106).
T3 sequence (looked up) 1: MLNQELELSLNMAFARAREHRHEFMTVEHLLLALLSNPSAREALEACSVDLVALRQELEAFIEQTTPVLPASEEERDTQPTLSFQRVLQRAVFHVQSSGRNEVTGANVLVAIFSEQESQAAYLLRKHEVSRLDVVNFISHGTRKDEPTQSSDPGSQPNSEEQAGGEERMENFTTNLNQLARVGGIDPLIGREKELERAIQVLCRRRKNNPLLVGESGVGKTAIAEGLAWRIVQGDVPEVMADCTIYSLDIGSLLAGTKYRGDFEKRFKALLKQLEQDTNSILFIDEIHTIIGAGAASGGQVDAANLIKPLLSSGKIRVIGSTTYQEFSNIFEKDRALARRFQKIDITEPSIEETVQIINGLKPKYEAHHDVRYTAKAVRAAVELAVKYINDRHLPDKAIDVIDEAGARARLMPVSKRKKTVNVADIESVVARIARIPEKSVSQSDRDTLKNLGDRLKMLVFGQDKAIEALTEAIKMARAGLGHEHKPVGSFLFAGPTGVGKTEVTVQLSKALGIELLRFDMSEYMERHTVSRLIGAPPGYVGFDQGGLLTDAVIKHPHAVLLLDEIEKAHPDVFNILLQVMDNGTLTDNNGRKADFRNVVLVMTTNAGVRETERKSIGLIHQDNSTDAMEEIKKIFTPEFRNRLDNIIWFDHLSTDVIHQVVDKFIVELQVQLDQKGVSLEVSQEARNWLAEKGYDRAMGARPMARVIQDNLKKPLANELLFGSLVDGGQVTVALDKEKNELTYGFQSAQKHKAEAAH
T3 sequence (looked up) 2: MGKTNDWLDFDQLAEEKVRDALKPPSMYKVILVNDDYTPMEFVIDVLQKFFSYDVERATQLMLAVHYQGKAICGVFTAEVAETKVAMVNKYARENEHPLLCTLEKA
As to the kind of experiment: fluorescence polarisation.

The target of data set [1] is T4, ClpS^core (E. coli ClpS residues 26-106) (E. coli, UniProt P0A8Q6 26-106).
T4 sequence (looked up): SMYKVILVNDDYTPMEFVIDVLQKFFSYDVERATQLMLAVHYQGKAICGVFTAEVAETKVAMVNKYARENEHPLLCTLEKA
Put plainly: fluorescence polarisation.

The target of data set [2] is T5, ClpS adaptor (intact, wild type) (E. coli, UniProt P0A8Q6 1-106).
T5 sequence (looked up): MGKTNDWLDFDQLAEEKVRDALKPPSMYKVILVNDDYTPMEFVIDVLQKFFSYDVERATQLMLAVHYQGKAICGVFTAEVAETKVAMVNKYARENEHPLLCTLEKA
As to the kind of experiment: fluorescence polarisation.

The subject of data set [3] is ClpAP. The note with it: H66A mutation; in words; ref Wang et al., 2008a; cited from earlier work.
For data set [4], the system named is ClpAP. Put plainly: ClpAPS degradation of YLFVQELA-GFP. The data set is classed as biochemical, E. coli. The note with it: YLFVQELA-GFP degradation; Vmax = Etotal•kdeg/(1+K2); KM = K1•K2/(1+K2); Fig. 4B.
Data set [5] deals with ClpAP. The note with it: ref Dougan et al., 2002; cited from earlier work.
The next data set has as its system ClpA. As to the kind of experiment: FeBABE cleavage of ClpA by FeBABE-modified ^Q12CClpS. Further details: species or system E. coli. The note with it: SDS-PAGE; in words.

No end group written: not given here. Some results are limits rather than exact numbers.

One may read the Kd as the constant that tells how readily two partners part at equilibrium. The low end stands for tighter binding, the high end for weaker binding.

Sequence of ClpA6 (P0A8Q6 whole entry C73V/E96C/C101S, one chain of several): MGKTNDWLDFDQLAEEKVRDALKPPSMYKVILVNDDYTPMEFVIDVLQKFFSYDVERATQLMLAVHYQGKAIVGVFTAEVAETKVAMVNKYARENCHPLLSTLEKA

As to LLYVQRDSKEC, in the data set with ^ΔLClpA6, the “enhancement of ClpS*^F binding to ^ΔLClpA6 by N-end-rule peptide” value is “enhanced binding of ClpS*^F to ClpA6 but not to ^ΔLClpA6”. Further, the “ClpA6 bound ClpS*^F more tightly, fold” value on ClpA6 (excess peptide, compared with MLYVQRDSKEC peptide or absence of ligand) is listed as “at least 9 fold”. Moreover, the “Kapp of ClpA6 for ClpS*^F in presence of peptide” value on ClpA6 (fluorescence anisotropy, 200 nM ClpS*^F, 20 μM peptide, ATPγS, Fig. 3A) is less than 20 nM.

B1: E. coli ClpS residues 2-106 (crystals of Schuenemann et al., 2009, re-refined here) (natural protein, UniProt P0A8Q6 2-106, looked up)
chain: GKTNDWLDFDQLAEEKVRDALKPPSMYKVILVNDDYTPMEFVIDVLQKFFSYDVERATQLMLAVHYQGKAICGVFTAEVAETKVAMVNKYARENEHPLLCTLEKA
On to B1, for which the binding result in the data set “crystal structure” is “binds”.
For LLYVQRDSKEC(fluorescein maleimide) [fluorescent N-end-rule peptide LLYVQRDSKEC-fl], the Kd in the data set with L22 ClpS with ClpA6 is 290 nM; in the data set with D20 ClpS with ClpA6, 130 nM; in the data set with ClpS-ClpA6 complex, 43 nM; in data set [1], roughly 3000 nM; in data set [2] it was roughly 3000 nM.

B2: H66A: H66A mutation of ClpS (protein, UniProt P0A8Q6 1-106, looked up, variant H66A)
ATP-dependent Clp protease …: MGKTNDWLDFDQLAEEKVRDALKPPSMYKVILVNDDYTPMEFVIDVLQKFFSYDVERATQLMLAVAYQGKAICGVFTAEVAETKVAMVNKYARENEHPLLCTLEKA
B2: the “KM and Vmax for ClpAP degradation of N-end-rule substrates” value in the data set on ClpAP [3] is “increased KM and reduced Vmax”.

B3: ClpS: E. coli ClpS adaptor; folded core (residues 26-106) and N-terminal extension (residues 1-25) (protein, UniProt P0A8Q6 1-106, looked up)
ATP-dependent Clp protease …: MGKTNDWLDFDQLAEEKVRDALKPPSMYKVILVNDDYTPMEFVIDVLQKFFSYDVERATQLMLAVHYQGKAICGVFTAEVAETKVAMVNKYARENEHPLLCTLEKA
For B3, in the data set with ClpAP [4], the “K2 (unimolecular engagement step, global fit)” value is reported as 0.37. In addition, the “degradation by ClpAP” value with ClpAP [5] was “does not degrade”.

B4: ^Q12CClpS: Q12C ClpS variant, FeBABE attached to residue 12 (protein, UniProt P0A8Q6 1-106, looked up, variant Q12C)
ATP-dependent Clp protease …: MGKTNDWLDFDCLAEEKVRDALKPPSMYKVILVNDDYTPMEFVIDVLQKFFSYDVERATQLMLAVHYQGKAICGVFTAEVAETKVAMVNKYARENEHPLLCTLEKA
modifications: FeBABE attached at Cys12
As for B4, the FeBABE cleavage requirement entry with ClpA is “cleavage of ClpA required FeBABE-modified ^Q12CClpS and ATPγS”.
